Data as given in patent US20030166536A1.

Assays:
Test in all cases: cell-based or functional assay
[1] = biological target: HP4, hybrid human/porcine B-domainless factor VIII, porcine substitution 373-540 (human; porcine) (UniProt P00451)
[2] = biological target: human B-domainless factor VIII R484 → A (human) (UniProt P00451)
[3] = biological target: HP10, hybrid human/porcine B-domainless factor VIII, porcine substitution 373-403 (human; porcine) (UniProt P00451)
[4] = biological target: HP6, hybrid human/porcine B-domainless factor VIII, porcine substitution 373-444 (human; porcine) (UniProt P00451)
[5] = biological target: HP5, hybrid human/porcine B-domainless factor VIII, porcine substitution 373-508 (human; porcine) (UniProt P00451)
[6] = biological target: human B-domainless factor VIII I508 → A (human) (UniProt P00451)
[7] = biological target: HP12, hybrid human/porcine B-domainless factor VIII, porcine substitution 489-508 (human; porcine) (UniProt P00451)
[8] = biological target: B-domainless human factor VIII (human) (UniProt P00451)
[9] = biological target: human B-domainless factor VIII R490 → A (human) (UniProt P00451)
[10] = biological target: human B-domainless factor VIII P492 → A (human) (UniProt P00451)
Chain of human B-domainless factor VIII P492 → A (human) (P00451 other isoform, or with tags, fused parts or gaps): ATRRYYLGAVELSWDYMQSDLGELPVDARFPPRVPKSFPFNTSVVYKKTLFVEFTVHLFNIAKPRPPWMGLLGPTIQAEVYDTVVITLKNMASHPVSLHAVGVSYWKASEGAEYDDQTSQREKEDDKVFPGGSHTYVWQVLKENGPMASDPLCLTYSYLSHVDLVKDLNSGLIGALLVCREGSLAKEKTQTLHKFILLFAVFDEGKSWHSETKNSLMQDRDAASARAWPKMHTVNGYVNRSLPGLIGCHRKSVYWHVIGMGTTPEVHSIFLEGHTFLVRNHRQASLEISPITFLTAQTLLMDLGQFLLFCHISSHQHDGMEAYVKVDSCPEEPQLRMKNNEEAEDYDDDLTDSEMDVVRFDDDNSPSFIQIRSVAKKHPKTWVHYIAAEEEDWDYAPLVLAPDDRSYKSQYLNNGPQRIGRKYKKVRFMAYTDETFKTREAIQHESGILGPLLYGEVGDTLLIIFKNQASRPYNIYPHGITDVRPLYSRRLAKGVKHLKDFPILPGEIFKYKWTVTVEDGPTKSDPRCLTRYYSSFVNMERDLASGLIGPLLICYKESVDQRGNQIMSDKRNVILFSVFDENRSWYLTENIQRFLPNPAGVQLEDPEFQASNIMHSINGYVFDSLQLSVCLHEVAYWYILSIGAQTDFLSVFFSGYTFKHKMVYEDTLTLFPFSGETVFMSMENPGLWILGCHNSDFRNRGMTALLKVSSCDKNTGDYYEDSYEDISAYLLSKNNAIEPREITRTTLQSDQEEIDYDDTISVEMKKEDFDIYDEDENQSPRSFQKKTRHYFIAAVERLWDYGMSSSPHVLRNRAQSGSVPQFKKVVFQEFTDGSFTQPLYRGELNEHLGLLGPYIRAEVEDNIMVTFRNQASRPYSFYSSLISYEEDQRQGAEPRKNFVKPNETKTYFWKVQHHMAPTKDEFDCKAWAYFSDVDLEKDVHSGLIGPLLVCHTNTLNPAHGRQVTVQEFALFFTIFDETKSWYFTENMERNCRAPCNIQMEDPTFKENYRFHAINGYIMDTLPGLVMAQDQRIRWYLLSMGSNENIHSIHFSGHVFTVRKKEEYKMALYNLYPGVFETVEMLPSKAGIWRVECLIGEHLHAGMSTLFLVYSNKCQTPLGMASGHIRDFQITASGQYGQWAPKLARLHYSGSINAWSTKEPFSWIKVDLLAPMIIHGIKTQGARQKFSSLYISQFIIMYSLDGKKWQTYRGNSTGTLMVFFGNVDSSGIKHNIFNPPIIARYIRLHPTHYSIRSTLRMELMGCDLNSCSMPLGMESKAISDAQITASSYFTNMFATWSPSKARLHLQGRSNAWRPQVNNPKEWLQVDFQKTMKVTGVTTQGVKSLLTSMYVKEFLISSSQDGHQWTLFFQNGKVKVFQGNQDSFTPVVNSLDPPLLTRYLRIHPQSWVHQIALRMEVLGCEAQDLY

[11] = biological target: human B-domainless factor VIII S488 → A (human) (UniProt P00451)
[12] = biological target: human B-domainless factor VIII R489 → A (human) (UniProt P00451)
[13] = biological target: HP9, hybrid human/porcine B-domainless factor VIII, porcine substitution 484-508 (human; porcine) (UniProt P00451)
[14] = biological target: HP8, hybrid human/porcine B-domainless factor VIII, porcine substitution 373-483 (human; porcine) (UniProt P00451)
[15] = biological target: human B-domainless factor VIII Y487 → A (human) (UniProt P00451)
[16] = biological target: HP7, hybrid human/porcine B-domainless factor VIII, porcine substitution 445-508 (human; porcine) (UniProt P00451)
[17] = biological target: human B-domainless factor VIII F501 → A (human) (UniProt P00451)
[18] = biological target: human B-domainless factor VIII V495 → A (human) (UniProt P00451)
Chain of human B-domainless factor VIII V495 → A (human) (P00451 other isoform, or with tags, fused parts or gaps): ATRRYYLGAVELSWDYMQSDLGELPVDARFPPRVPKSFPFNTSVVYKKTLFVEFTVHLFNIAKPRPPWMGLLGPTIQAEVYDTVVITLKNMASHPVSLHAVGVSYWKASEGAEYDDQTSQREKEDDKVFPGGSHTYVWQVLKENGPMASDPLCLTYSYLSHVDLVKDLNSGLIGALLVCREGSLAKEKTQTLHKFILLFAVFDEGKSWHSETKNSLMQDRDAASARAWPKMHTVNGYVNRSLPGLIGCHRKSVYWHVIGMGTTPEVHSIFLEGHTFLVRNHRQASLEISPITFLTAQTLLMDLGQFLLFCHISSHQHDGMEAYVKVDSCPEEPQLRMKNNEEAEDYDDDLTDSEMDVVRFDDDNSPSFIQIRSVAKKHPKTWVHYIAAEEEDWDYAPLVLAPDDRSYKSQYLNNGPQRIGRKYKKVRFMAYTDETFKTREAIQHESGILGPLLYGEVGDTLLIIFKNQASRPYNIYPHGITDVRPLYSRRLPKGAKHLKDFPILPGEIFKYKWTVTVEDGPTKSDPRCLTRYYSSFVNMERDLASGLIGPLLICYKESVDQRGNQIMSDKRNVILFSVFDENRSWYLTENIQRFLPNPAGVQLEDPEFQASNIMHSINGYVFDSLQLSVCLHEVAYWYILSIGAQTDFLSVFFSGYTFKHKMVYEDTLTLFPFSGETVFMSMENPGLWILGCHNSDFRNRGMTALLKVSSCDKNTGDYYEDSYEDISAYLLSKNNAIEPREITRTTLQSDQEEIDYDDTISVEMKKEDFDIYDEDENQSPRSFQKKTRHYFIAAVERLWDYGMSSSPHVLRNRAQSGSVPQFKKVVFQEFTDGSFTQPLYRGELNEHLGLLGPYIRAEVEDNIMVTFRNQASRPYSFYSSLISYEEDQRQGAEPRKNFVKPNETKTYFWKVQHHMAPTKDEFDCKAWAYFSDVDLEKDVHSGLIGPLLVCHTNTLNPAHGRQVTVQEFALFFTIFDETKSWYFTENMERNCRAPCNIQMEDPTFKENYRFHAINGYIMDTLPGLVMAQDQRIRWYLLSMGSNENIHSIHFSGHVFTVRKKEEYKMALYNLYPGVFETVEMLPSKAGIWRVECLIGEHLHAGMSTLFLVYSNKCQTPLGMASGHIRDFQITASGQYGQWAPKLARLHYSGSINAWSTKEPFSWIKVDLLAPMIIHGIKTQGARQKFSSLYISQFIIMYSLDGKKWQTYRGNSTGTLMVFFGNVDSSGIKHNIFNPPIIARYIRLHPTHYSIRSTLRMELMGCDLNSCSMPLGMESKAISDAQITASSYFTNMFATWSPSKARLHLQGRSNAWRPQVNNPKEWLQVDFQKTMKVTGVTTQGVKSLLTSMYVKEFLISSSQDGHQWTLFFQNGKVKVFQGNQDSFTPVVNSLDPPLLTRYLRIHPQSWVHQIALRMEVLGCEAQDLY

[19] = biological target: HP11, hybrid human/porcine B-domainless factor VIII, porcine substitution 404-508 (human; porcine) (UniProt P00451)
[20] = biological target: human B-domainless factor VIII P485 → A (human) (UniProt P00451)
[21] = biological target: HP13, hybrid human/porcine B-domainless factor VIII, porcine substitution 484-488 (human; porcine) (UniProt P00451)
[22] = biological target: human A1/A3-C1-C2 dimer of factor VIIIa (human) (UniProt P00451)
[23] = biological target: porcine A1/A3-C1-C2 dimer of factor VIIIa (porcine) (UniProt P12263)

Chain of human B-domainless factor VIII R484 → A (human) (P00451 other isoform, or with tags, fused parts or gaps): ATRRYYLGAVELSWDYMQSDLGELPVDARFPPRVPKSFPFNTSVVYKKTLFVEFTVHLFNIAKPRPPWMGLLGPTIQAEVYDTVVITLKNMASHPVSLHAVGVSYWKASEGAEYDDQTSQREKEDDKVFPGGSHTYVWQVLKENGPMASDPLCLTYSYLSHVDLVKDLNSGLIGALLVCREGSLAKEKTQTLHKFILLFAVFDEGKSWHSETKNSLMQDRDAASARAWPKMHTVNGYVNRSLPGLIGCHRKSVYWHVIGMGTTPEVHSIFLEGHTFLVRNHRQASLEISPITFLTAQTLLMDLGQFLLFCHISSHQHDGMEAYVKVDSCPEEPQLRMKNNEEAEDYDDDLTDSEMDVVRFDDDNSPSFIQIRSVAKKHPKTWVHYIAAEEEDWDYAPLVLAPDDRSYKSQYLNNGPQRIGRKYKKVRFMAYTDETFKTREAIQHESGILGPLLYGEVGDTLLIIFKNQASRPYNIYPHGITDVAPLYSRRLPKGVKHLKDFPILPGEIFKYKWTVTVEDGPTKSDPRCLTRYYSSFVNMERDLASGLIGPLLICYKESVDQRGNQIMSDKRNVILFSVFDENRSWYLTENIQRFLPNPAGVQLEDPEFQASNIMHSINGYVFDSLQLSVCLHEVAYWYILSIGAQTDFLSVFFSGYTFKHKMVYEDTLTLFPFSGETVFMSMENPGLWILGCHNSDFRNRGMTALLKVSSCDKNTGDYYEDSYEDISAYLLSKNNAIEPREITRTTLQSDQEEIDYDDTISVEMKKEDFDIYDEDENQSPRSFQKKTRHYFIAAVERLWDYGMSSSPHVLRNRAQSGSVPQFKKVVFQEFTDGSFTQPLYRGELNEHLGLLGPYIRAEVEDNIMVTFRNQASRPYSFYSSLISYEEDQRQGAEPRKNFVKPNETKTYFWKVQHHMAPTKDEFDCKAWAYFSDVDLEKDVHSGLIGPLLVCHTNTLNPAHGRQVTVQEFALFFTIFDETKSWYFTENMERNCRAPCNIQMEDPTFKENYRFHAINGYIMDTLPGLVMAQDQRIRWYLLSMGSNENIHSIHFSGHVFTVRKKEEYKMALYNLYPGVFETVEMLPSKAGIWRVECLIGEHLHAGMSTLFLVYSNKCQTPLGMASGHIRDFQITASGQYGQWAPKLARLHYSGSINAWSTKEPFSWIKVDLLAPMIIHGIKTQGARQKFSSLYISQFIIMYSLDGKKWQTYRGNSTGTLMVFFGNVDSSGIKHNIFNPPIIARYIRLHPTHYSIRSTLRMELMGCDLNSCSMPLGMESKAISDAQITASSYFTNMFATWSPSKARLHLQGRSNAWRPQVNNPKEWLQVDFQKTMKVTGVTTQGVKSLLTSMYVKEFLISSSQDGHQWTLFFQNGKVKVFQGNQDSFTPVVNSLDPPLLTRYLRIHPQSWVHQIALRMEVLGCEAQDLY

“mAb413, murine monoclonal inhibitory antibody specific for the A2 domain of factor VIII” was tested, and the Inhibition mAb413 (BU/mg IgG), Bethesda assay [1] was less than 0.7 BU/mg IgG, the % Reactivity relative to wild-type [2] was 1.7% and the MAb413 titer (BU/mg), Bethesda assay [2] was 160 BU/mg. The Inhibition mAb413 (BU/mg IgG), Bethesda assay [3] was 1170 BU/mg IgG, the Inhibition mAb413 (BU/mg IgG), Bethesda assay [4] was 1450 BU/mg IgG and the Inhibition mAb413 (BU/mg IgG), Bethesda assay [5] was less than 0.7 BU/mg IgG. For the same substance, the % Reactivity relative to wild-type [6] was 60%, the MAb413 titer (BU/mg), Bethesda assay [6] was 5620 BU/mg and the Inhibition mAb413 (BU/mg IgG), Bethesda assay [7] was less than 0.7 BU/mg IgG. For the same substance, the Inhibition mAb413 (BU/mg IgG), Bethesda assay [8] was 1470 BU/mg IgG, the MAb413 titer (BU/mg), Bethesda assay [8] was 9400 BU/mg and the % Reactivity relative to wild-type [9] was less than 0.5%. The reactivity to inhibitor relative to human factor VIII [9] was 0.2%, the % Reactivity relative to wild-type [10] was 6.7% and the MAb413 titer (BU/mg), Bethesda assay [10] was 630 BU/mg. The % Reactivity relative to wild-type [11] was 37%, the MAb413 titer (BU/mg), Bethesda assay [11] was 3500 BU/mg and the % Reactivity relative to wild-type [12] was 0.015%. The MAb413 titer (BU/mg), Bethesda assay [12] was 1.6 BU/mg, the Inhibition mAb413 (BU/mg IgG), Bethesda assay [13] was less than 0.7 BU/mg IgG and the Inhibition mAb413 (BU/mg IgG), Bethesda assay [14] was 1250 BU/mg IgG. It also gave a % Reactivity relative to wild-type [15] of 0.53%, an MAb413 titer (BU/mg), Bethesda assay [15] of 50 BU/mg and an Inhibition mAb413 (BU/mg IgG), Bethesda assay [16] of less than 0.7 BU/mg IgG. For the same substance, the % Reactivity relative to wild-type [17] was 126%, the MAb413 titer (BU/mg), Bethesda assay [17] was 11900 BU/mg and the % Reactivity relative to wild-type [18] was 113%. For the same substance, the MAb413 titer (BU/mg), Bethesda assay [18] was 10700 BU/mg, the Inhibition mAb413 (BU/mg IgG), Bethesda assay [19] was less than 0.7 BU/mg IgG and the % Reactivity relative to wild-type [20] was 42%. The MAb413 titer (BU/mg), Bethesda assay [20] was 4000 BU/mg and the Inhibition mAb413 (BU/mg IgG), Bethesda assay [21] was less than 0.7 BU/mg IgG.

Work on “porcine factor VIIIa A2 domain, isolated from porcine blood (from UniProt P12263 392-759)” yielded a Specific Activity (U/mg) of reconstituted hybrid fVIIIa, two-stage clotting assay at 1 hour [22] of 140000 U/mg and a Specific Activity (U/mg) of reconstituted fVIIIa, two-stage clotting assay at 1 hour [23] of 70000 U/mg.
